Common to all, as to assay: SPR Biacore, avidity (bivalent, apparent KD), antigen-Fc on SA chip
(In SPR one partner is held on a chip, and binding of the other changes the refractive index at the surface.)

The target of experiment [1] is T1, recombinant biotinylated monomeric Fc fusion of cynomolgus Folate Receptor 1 (cy FolR1 ECD-AcTev-Fcknob-Avi … (cynomolgus, UniProt P0DOX5 223-449 = IgG part, biotin on the C-terminal Avi tag)).
T1 construct: also called cyFolR1-Fc; cyno FolR1
How it is done: (§1) The avidity of the interaction between the anti-FolR1 IgG or T cell bispecifics and the recombinant folate receptors was determined as described below (Table 25).
(§2) Recombinant biotinylated monomeric Fc fusions of human, cynomolgus and murine Folate Receptor 1 (FolR1-Fc) were directly coupled on a SA chip using the standard coupling instruction (Biacore, GE Healthcare). The immobilization level was about 300-400 RU. The anti-FolR1 IgGs or T cell bispecifics were passed at a concentration range from 3.7 to 900 nM with a flow of 30 μL/minutes through the flow cells over 180 seconds. The dissociation was monitored for 240 or 600 seconds. The chip surface was regenerated after every cycle using a double injection of 30 sec 10 mM Glycine-HCl pH 2. Bulk refractive index differences were corrected for by subtracting the response obtained on reference flow cell immobilized with recombinant biotinylated murine CD134 Fc fusion. The binding curves resulting from the bivalent binding of the IgG or T cell bispecifics were approximated to a 1:1 Langmuir binding (even though it is a 1:2 binding) and fitted with that model to get an apparent KD representing the avidity of the bivalent binding. The apparent avidity constants for the interactions were derived from the rate constants of the fitting using the Bia Evaluation software (GE Healthcare). For the 1+1 T cell bispecifics format the interaction is a real 1:1 and the KD represents affinity since there is only one FolR1 binder in this construct.

Experiment [2] concerns the target T2, recombinant biotinylated monomeric Fc fusion of murine Folate Receptor 1 (mu FolR1 ECD-AcTev-Fcknob-Avitag … (murine, UniProt P0DOX5 223-449 = IgG part, biotin on the C-terminal Avi tag)).
T2 construct: also called muFolR1-Fc; murine FolR1
The protocol:
as §1, §2

The target of experiment [3] is T3, recombinant biotinylated monomeric Fc fusion of human Folate Receptor 1 (huFolR1 ECD-AcTev-Fcknob-Avi tag … (human, UniProt P0DOX5 223-449 = IgG part, biotin on the C-terminal Avi tag)).
T3 construct: also called huFolR1-Fc; human FolR1-Fc
How it is done: as §1, §2

B1: 36F2 IgG (antibody, V domains shown)
VH: QVQLVQSGAEVKKPGASVKVSCKASGYTFTSYYMHWVRQAPGQGLEWMGIINPSGGSTSYAQKFQGRVTMTHDTSTSTVYMELSSLRSEDTAVYYCARSFFTGFHLDYWGQGTLVTVSS
VL: EIVLTQSPGTLSLSPGERATLSCRASQSVSSSYLAWYQQKPGQAPRLLIYGASSRATGIPDRFSGSGSGTDFTLTISRLEPEDFAVYYCQQYTNEHYYTFGQGTKVEIK
B1: the results for the Kd in experiment [1], in experiment [2] and in experiment [3] were 6 nM, 2 nM and 6 nM, respectively. Moreover, the koff (in general, the rate constant with which the complex falls apart) in experiment [1] is 0.0175 s⁻¹; in experiment [2], 0.000823 s⁻¹; in experiment [3], 0.013 s⁻¹. The kon – broadly, the rate constant with which the complex forms – in experiment [1] is 2.78e+06 M⁻¹ s⁻¹; in experiment [2], 428000 M⁻¹ s⁻¹; in experiment [3] it was 2.07e+06 M⁻¹ s⁻¹.

The record behind these values is patent US20220220224A1 (Hoffmann-La Roche, published 2022).
